Data from patent publication US20170355757A1 (Regeneron, published 2017).

T1: monkey C5-mmh (monkey, UniProt P01031 19-1676 (human entry), limits assumed)
T1 construct: Expressed with a C-terminal myc-myc-hexahistidine tag
T1 chain: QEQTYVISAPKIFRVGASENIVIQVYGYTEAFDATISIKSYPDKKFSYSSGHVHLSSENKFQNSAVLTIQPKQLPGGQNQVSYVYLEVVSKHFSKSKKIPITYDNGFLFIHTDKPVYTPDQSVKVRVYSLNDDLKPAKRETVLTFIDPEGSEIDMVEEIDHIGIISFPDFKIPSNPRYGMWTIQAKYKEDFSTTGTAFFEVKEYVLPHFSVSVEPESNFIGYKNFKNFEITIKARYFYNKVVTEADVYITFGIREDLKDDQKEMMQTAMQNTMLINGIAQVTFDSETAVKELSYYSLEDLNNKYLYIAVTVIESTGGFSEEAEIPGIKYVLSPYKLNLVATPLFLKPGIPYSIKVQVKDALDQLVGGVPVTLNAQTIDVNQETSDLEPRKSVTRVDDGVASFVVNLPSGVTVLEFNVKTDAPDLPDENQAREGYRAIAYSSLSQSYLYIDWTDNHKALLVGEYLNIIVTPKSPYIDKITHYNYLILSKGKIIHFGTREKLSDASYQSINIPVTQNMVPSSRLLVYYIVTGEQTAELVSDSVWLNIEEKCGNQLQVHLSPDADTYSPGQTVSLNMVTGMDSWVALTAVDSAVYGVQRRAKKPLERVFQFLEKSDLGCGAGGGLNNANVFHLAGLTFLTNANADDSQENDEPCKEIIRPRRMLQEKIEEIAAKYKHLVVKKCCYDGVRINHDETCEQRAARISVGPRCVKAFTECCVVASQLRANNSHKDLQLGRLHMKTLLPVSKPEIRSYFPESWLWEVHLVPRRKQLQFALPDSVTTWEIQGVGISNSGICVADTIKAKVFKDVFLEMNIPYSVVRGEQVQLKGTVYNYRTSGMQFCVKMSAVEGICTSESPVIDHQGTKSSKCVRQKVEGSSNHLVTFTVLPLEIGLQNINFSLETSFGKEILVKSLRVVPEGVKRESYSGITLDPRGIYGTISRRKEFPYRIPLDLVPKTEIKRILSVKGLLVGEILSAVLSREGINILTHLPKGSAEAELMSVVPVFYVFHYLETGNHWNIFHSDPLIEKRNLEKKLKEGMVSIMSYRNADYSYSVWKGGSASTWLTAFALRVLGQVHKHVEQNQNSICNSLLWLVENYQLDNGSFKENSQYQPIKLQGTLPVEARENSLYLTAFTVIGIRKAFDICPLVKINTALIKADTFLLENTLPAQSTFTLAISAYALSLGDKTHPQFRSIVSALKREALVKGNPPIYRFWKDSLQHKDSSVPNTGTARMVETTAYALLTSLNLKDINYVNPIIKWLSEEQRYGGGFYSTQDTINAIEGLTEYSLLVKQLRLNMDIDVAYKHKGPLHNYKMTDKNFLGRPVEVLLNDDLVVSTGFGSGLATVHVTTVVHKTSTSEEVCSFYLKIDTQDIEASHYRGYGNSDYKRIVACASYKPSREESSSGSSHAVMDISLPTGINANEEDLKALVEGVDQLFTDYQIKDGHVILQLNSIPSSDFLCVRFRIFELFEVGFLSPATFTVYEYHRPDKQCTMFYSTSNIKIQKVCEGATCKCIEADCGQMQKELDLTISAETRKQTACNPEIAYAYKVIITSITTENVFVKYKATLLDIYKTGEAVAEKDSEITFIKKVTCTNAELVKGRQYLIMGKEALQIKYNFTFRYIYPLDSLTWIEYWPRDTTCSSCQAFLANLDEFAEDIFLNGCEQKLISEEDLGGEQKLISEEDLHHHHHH

B1: H4H12177P2 (antibody, human IgG4, V domains shown)
VH: EVQLVESGGGVVQRGESLRLSCSASDFIFKDYAMYWVRQIPGKGLEWISLISGDGDTTWYGDSVKGRFTISRDNNENSLFLQMNDLRTEDTAMYYCARDMGWNFFQLQYWGQGTLVTVSS
VL: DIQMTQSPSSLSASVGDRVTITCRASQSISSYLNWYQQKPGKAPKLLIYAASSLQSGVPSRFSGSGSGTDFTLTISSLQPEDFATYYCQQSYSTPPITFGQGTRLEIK
B2: H4H12170P (antibody, human IgG4, V domains shown)
VH: QVQLVESGGGVVQPGRSLRLSCAASGFTFSGYGMHWVRQAPGKGLEWVALIWLDGSNDYYADSVKGRFTISRDNSKNTLYLQMNRLRAEDTAVYYCARDGPVAAIPDYWGQGTLVTVSS
VL: DIQMTQSPSTLSASVGDRVTITCRASQSISRWLAWYQLKPGKAPKLLIYKASSLESGVPSRFSGSGSGTDFTLTISSLQPDDFATYYCQQYNTYSYTFGQGTKLEIK
B3: H4H12183P2 (antibody, human IgG4, V domains shown)
VH: QVQLQESGPALVKPSQTLSLTCTVSGGSIIRGSTYWSWVRQFPGKGLEWIGYSYYSGTAYYNPSLESRATISVDTSKNQFSLNLKSVTAADTAVYYCTREIGVAGLFDIWGQGTLVTVSS
VL: not shown
B4: H4H11686N (antibody, human IgG4, V domains shown)
VH: QVQLVESGGGLVKPGGSLRLSCAASGFTFSDYYMSWIRQAPGKGLEWVSYISSSGNTIKYADSMKGRFTISRDNAKKSLFVEMNSLRAEDTAVYYCARYKSSSDYFDHWGQGTLVTVSS
VL: EIVLTQSPATLSLSPGERATLSCRASQSVRSYLAWYQQKPGQAPRLLIYDASNRATAIPARFSGSGSGTDFTLTISSLEPEDLAVYYCQQSGNWPLTFGGGTKVEIK
notes: also called H2M11686N
B5: H4H12166P2 (antibody, human IgG4, V domains shown)
VH: QVQLQESGPGLVKPSETLSLTCTVSGDSVSSSYWTWIRQPPGKGLEWIGYIYYSGSSNYNPSLKSRATISVDTSKNQFSLKLSSVTAADTAVYYCAREGNVDTTMIFDYWGQGTLVTVSS
VL: AIQMTQSPSSLSASVGDRVTITCRASQGIRNDLGWYQQKPGKAPKLLIYAASSLQSGVPSRFAGRGSGTDFTLTISSLQPEDFATYYCHQDFNYPWTFGQGTKVEIK
notes: human IgG4 Fc with S108P hinge mutation

Assays:
[1] = molecular target: T2, Human C5 (human, UniProt P01031 19-1676); test: SPR, mAb captured by anti-hFc, 37C
T2 construct: The natural protein has a beta and an alpha chain; also called complement factor 5; complement component 5
Experimental: (§1) Equilibrium dissociation constants (KD values) for C5 binding to purified anti-C5 antibodies were determined using a real-time surface plasmon resonance biosensor assay on a Biacore T200 instrument. The Biacore sensor surface was derivatized by amine coupling with a monoclonal mouse anti-human Fc antibody (GE Healthcare, # BR-1008-39) to capture anti-C5 antibodies expressed with human Fc constant regions. Biacore binding studies were conducted in HBST running buffer (0.01M HEPES pH 7.4, 0.15M NaCl, 3 mM EDTA, 0.05% v/v Surfactant P20).
(§2) Human C5 was obtained from a commercial source (EMD). Other C5 reagents were expressed with a C-terminal myc-myc-hexahistidine tag (subsequently referred to as C5-mmh). […] Association of all the C5 reagents to each of the captured monoclonal antibodies was monitored for 3 minutes and their dissociation in HBST running buffer was monitored for 8 minutes. All the binding kinetics experiments were performed at either 25° C. or 37° C. Kinetic association (kₐ) and dissociation (kd) rate constants were determined by fitting the real-time sensorgrams to a 1:1 binding model using Scrubber 2.0c curve fitting software. Binding dissociation equilibrium constants (KD) and dissociative half-lives (t %) were calculated from the kinetic rate constants as: KD (M)=kd/kₐ and t_{1/2} (min)=In2/(60×kd)

[2] = molecular target: T1, monkey C5-mmh; test: SPR, mAb captured by anti-hFc, 25C
Experimental: as §1, §2

[3] = molecular target: T2, Human C5; test: SPR, mAb captured by anti-hFc, 25C
Experimental: as §1, §2

Row | 100 nM Human C5 Bound (RU) [1] | Kd [1] | koff [1] | kon [1] | t½ [1] | 100 nM monkey C5-mmh Bound (RU) [2] | Kd [2] | koff [2] | kon [2] | t1/2 [2] | 100 nM Human C5 Bound (RU) [3] | Kd [3] | koff [3] | kon [3] | t½ [3] | Binder
1 | 37 RU | 13.1 nM | 0.000578 s⁻¹ | 44200 M⁻¹ s⁻¹ | 20 min | 32 RU | 21.5 nM | 0.000992 s⁻¹ | 46200 M⁻¹ s⁻¹ | 12 min | 60 RU | 0.959 nM | 6.29e-05 s⁻¹ | 65600 M⁻¹ s⁻¹ | 184 min | B1
2 | 55 RU | 1.4 nM | 0.000415 s⁻¹ | 297000 M⁻¹ s⁻¹ | 28 min | 92 RU | 0.199 nM | 5.21e-05 s⁻¹ | 262000 M⁻¹ s⁻¹ | 222 min | 119 RU | 0.129 nM | 6.79e-05 s⁻¹ | 525000 M⁻¹ s⁻¹ | 170 min | B2
3 | 30 RU | 5.81 nM | 0.00025 s⁻¹ | 43000 M⁻¹ s⁻¹ | 46 min | 23 RU | 10.1 nM | 0.000494 s⁻¹ | 48800 M⁻¹ s⁻¹ | 23 min | 50 RU | 0.163 nM | 2.7e-05 s⁻¹ | 166000 M⁻¹ s⁻¹ | 427 min | B3
4 | 406 RU | 0.469 nM | 0.000156 s⁻¹ | 333000 M⁻¹ s⁻¹ | 74 min | 247 RU | 3.11 nM | 0.000489 s⁻¹ | 157000 M⁻¹ s⁻¹ | 24 min | 341 RU | 0.15 nM | 3.31e-05 s⁻¹ | 220000 M⁻¹ s⁻¹ | 349 min | B4
5 | 110 RU | 1.29 nM | 0.00123 s⁻¹ | 950000 M⁻¹ s⁻¹ | 9 min | 71 RU | 10.5 nM | 0.00316 s⁻¹ | 300000 M⁻¹ s⁻¹ | 4 min | 95 RU | 0.438 nM | 0.000361 s⁻¹ | 826000 M⁻¹ s⁻¹ | 32 min | B5
